We go through six molecules from patent US12404345B2, “Humanized antibodies against iRHOM2” (SCIRHOM GMBH, priority 2021, dated 2025).

This experiment deals with T1, rhesus monkey iRhom1 (Macaca mulatta, UniProt F6ZPC8).
T1 construct: T7-tagged version of rhesus monkey iRhom1 full length wild type; expressed in transfected cells; host or cells: immortalized iRhom1/2-/- DKO mouse embryonic fibroblasts, pMSCV retroviral infection
T1 sequence (F6ZPC8 1-833): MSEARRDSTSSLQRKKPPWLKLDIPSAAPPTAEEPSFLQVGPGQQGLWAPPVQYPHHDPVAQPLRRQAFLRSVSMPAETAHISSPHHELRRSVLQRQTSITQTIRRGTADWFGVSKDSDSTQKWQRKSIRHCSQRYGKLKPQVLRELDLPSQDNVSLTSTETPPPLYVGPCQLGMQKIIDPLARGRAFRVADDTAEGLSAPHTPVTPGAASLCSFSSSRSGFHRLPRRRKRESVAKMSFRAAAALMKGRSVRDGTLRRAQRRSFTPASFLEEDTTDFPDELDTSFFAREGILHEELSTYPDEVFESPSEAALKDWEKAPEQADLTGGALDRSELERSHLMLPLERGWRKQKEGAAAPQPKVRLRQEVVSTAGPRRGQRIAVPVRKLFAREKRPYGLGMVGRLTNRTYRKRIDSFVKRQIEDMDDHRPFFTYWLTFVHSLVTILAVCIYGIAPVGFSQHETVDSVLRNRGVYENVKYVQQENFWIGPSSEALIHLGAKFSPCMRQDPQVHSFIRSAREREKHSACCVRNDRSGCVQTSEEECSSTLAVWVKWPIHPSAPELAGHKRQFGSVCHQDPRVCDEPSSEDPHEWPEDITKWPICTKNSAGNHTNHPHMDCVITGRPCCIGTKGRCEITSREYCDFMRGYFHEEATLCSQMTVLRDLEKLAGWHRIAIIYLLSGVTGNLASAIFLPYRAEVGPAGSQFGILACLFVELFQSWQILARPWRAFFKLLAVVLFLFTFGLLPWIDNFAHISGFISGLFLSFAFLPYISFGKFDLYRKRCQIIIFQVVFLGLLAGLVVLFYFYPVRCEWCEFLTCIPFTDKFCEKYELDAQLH
Put plainly: FACS binding on MEF-DKO-Rhesus-iR1-FL-WT-T7 cells. Particulars: antibody at 3 μg/ml. From the text: Next, iRhom1/2−/− DKO MEFs stably expressing a tagged form of rhesus monkey, cynomolgus monkey, dog or rabbit iRhom2 were generated in order to determine cross-reactivity of the antibodies of the invention with the respective orthologue of iRhom2. iRhom1/2−/− DKO MEFs stably expressing a tagged form of rhesus monkey, cynomolgus monkey, dog or rabbit iRhom1 were generated to confirm specificity for iRhom2 versus iRhom1 of these species.
In brief, on day 1, Phoenix-ECO cells (American Type Culture Collection, USA) were seeded on 6-well tissue culture plates (Greiner, Germany) in standard growth medium at 8×10^5 cells per well and kept overnight at 37° C., 5% CO2. On day 2, the medium was replaced by fresh medium supplemented with chloroquine (Sigma-Aldrich, USA) at a final concentration of 25 μM. Applying the calcium phosphate method, cells were transfected with 2 μg/ml of pMSCV (Clontech, USA) empty vector, pMSCV-rhesus-iR2-FL-WT-T7 encoding rhesus monkey iRhom2 full length wild type C-terminally tagged with 3 consecutive copies of the T7 epitope, pMSCV-cyno-iR2-FL-WT-T7 encoding cynomolgus monkey iRhom2 full length wild type C-terminally tagged with 3 consecutive copies of the T7 epitope, pMSCV-dog-iR2-FL-WT-T7 encoding dog iRhom2 full length wild type C-terminally tagged with 3 consecutive copies of the T7 epitope or pMSCV-rabbit-iR2-FL-WT-T7 encoding rabbit iRhom2 full length wild type C-terminally tagged with 3 consecutive copies of the T7 epitope, respectively, and were kept at 37° C., 5% CO2. After 7 hours, the transfections were stopped by replacing cell supernatants with standard growth medium lacking chloroquine, and cells were incubated at 37° C., 5% CO2 to allow virus production overnight. In parallel, immortalized iRhom1/2−/− DKO MEFs as target cells for retroviral infection were seeded on 6-well tissue culture plates (Greiner, Germany) in standard growth medium at 1×10^5 cells per well and were also kept overnight at 37° C., 5% CO2. On day 3, the supernatants of Phoenix-ECO cells releasing pMSCV, pMSCV-rhesus-iR2-FL-WT-T7, pMSCV-cyno-iR2-FL-WT-T7, pMSCV-dog-iR2-FL-WT-T7 or pMSCV-rabbit-iR2-FL-WT-T7 ecotrophic virus, respectively were collected, filtered with 0.45 μm CA filters, and supplemented with 4 μg/ml of polybrene (Sigma-Aldrich, USA). Upon removal of medium from the immortalized iRhom1/2−/− DKO MEFs, the virus containing supernatants were added to the target cells for 4 hours at 37° C., 5% CO2 for first infection. Simultaneously, Phoenix-ECO cells were re-incubated with fresh medium, which, after another 4 hours, was filtered and used for the second infection of the respective target cell populations, again in the presence of 4 μg/ml of polybrene. Likewise, a third, but overnight infection cycle was performed. On day 4, virus containing cell supernatants were replaced by fresh standard growth medium. From day 5 onwards, cells were grown in the presence of 2 mg/ml of geneticin (G418, Thermo Fisher Scientific, USA) for the selection of immortalized MEF-DKO-EV control cells stably infected with pMSCV empty vector, pMSCV-rhesus-iR2-FL-WT-T7 cells stably expressing rhesus monkey iRhom2 full length wild type C-terminally tagged with 3 consecutive copies of the T7 epitope, pMSCV-cyno-iR2-FL-WT-T7 cells stably expressing cynomolgus monkey iRhom2 full length wild type C-terminally tagged with 3 consecutive copies of the T7 epitope, pMSCV-dog-iR2-FL-WT-T7 cells stably expressing dog iRhom2 full length wild type C-terminally tagged with 3 consecutive copies of the T7 epitope or pMSCV-rabbit-iR2-FL-WT-T7 cells stably expressing rabbit iRhom2 full length wild type C-terminally tagged with 3 consecutive copies of the T7 epitope, respectively. Upon propagation, cells were stocked for future usage. In parallel, iRhom1/2−/− DKO MEFs stably expressing a tagged form of rhesus monkey, cynomolgus monkey, dog or rabbit iRhom1 were generated in an analogous manner. […]
Background: Flow cytometry measures light scatter and fluorescence of single cells or particles in a stream.

Where a chain is given by its changes, count along the chain named.

B1: 23-B-04: humanized antibody binding human iRhom2; HCVD SEQ ID NO 25, LCVD SEQ ID NO 29 (antibody, V domains shown)
VH: QVTLRESGPALVKPTQTLTLTCTFSGFSLSTFGMGVGWIRQPPGKALEWLAHIWWDDEKYYNSALKSRLTISKDTSKNQVVLTITNMDPVDTATYYCARISNYGSNYWYFNVWGQGTLVTVSS
VL: AIQLTQSPSSLSASVGDRVTITCRASSSVSYMYWYQQKPGKAPKVLIYDTSNLASGVPSRFSGSGSGTDYTLTISSLQPEDFATYYCQQWNAYPLTFGQGTKLEIK
modifications: antibody sequences
As to B1, the “binding to rhesus monkey iRhom1 on MEF-DKO-Rhesus-iR1-FL-WT-T7 cells” value (shortened to “binding to rhesus monkey iRhom1”) was “do not recognize rhesus monkey iRhom1”.

B2: 42-B-02: humanized antibody binding human iRhom2; HCVD SEQ ID NO 33, LCVD SEQ ID NO 37 (antibody, V domains shown)
VH: B1 VH with M34R, S101Q, N111D
VL: B1 VL with S28R, V29I, Y33F, A92S
modifications: antibody sequences
With B2, the “binding to rhesus monkey iRhom1” value is reported as “do not recognize rhesus monkey iRhom1”.

B3: 42-B-04: humanized antibody binding human iRhom2; HCVD SEQ ID NO 41, LCVD SEQ ID NO 45 (antibody, V domains shown)
VH: B1 VH with M34R, S101Q, N111D
VL: B1 VL with S28R, V29I, Y33F
modifications: antibody sequences
In the case of B3, the “binding to rhesus monkey iRhom1” value is “do not recognize rhesus monkey iRhom1”.

B4: 16-B-03: humanized antibody binding human iRhom2; HCVD SEQ ID NO 1, LCVD SEQ ID NO 5 (antibody, V domains shown)
VH: QVTLRESGPALVKPTQTLTLTCTFSGFSLSTFALGVGWIRQPPGKALEWLAHIWWDDDKYYNPALKSRLTISKDTSKNQVVLTITNMDPVDTATYYCARITTYYYGMDYWGQGTLVTVSS
VL: EIVMTQSPDFQSVTPKEKVTITCRASQSIGNHLHWYQQKPDASPKLLIKYASQSISGVPSRFSGSGSGTDFTLTINSLEAEDAATYFCQQSYQWPLTFGQGTKLEIK
modifications: antibody sequences
With B4, the “binding to rhesus monkey iRhom1” value was “no significant binding”.

B5: 16-B-05: humanized antibody binding human iRhom2; HCVD SEQ ID NO 9, LCVD SEQ ID NO 13 (antibody, V domains shown)
VH: B4 VH with D57E
VL: B4 VL with Q93N
modifications: antibody sequences
Regarding B5, the “binding to rhesus monkey iRhom1” value is reported as “do not recognize rhesus monkey iRhom1”.

B6: 16-B-07: humanized antibody binding human iRhom2; HCVD SEQ ID NO 17, LCVD SEQ ID NO 21 (antibody, V domains shown)
VH: B4 VH with D57E
VL: B4 VL
modifications: antibody sequences
Take B6: the “binding to rhesus monkey iRhom1” value is given as “do not recognize rhesus monkey iRhom1”.
